From patent CN111333724A (INST MILITARY MEDICINE ACADEMY MILITARY SCIENCES PLA, dated 2020) come the findings set out here.

In test [1] the target is T1, His-SEB蛋白 (Staphylococcus aureus, UniProt P01552 28-266).
T1 sequence: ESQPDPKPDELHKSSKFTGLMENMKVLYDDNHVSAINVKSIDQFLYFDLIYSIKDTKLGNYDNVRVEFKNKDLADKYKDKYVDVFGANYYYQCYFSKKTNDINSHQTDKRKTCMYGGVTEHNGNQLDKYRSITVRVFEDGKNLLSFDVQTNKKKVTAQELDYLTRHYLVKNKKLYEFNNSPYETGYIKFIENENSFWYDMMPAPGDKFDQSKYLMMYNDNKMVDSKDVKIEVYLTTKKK

Test [2] addresses T1, His-SEB蛋白. The source holds these as a separate data set.

B1: YG11-1抗体 (antibody, V domains shown)
VH: QVQLVESGGGVVQPGRSLRLSCAASGFSLSDHAVHWVRQAPGKGLEWVALISYDGSDKYYKDSVKGRFTISRDNPKNTLYLQMTSLKPEDTAVYYCARQGGNKNINYFFQYLDVWGQGTMVTVSS
VL: DIVMTQTPSSLSASVGDRVNISCRASQTISNHLNWYLQKPGKAPKLLIYDASSLESGVPSRFSGSGSGTDFTLTISSLQPEDFATYYCQQFINYPPTFGPGTKLEIKR
Consider B1, for which, in the test with His-SEB蛋白 [1], the response was half-maximal at 0.013 µg/mL (EC50). Moreover, in the test with His-SEB蛋白 [2], the Kd is 16.6 nM, the koff was found to be 0.0169 s⁻¹ and the kon came to 1.02e+06 M⁻¹ s⁻¹.
